Here are results for four molecules from patent US20160130351A1 (NOVIMMUNE S A, published 2016).

Residue numbers refer to the chain shown, from its start.

To fix the notation:
T1: soluble cynomolgus monkey IL-6R (cynomolgus monkey, UniProt A0A2K5WN54 60-396)
T1 construct: extracellular domain; also called scyIL-6R; soluble cynomolgus monkey IL-6 Receptor; not shown: C-terminal His- or Avi-Tag
T1 sequence: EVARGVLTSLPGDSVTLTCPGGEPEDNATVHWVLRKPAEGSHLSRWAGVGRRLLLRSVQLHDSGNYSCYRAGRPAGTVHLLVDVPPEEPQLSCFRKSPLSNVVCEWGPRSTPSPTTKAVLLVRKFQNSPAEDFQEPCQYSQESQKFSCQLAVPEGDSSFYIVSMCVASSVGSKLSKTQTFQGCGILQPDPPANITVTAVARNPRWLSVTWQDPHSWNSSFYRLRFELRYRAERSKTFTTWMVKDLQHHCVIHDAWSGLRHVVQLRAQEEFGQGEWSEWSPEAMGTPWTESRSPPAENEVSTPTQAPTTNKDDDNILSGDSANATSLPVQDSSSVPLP

T2: carrier-free soluble human IL-6R (R&D) (human, UniProt P08887 20-365)
T2 construct: extracellular domain; also called shuIL-6R; shuIL6-R
T2 sequence (looked up): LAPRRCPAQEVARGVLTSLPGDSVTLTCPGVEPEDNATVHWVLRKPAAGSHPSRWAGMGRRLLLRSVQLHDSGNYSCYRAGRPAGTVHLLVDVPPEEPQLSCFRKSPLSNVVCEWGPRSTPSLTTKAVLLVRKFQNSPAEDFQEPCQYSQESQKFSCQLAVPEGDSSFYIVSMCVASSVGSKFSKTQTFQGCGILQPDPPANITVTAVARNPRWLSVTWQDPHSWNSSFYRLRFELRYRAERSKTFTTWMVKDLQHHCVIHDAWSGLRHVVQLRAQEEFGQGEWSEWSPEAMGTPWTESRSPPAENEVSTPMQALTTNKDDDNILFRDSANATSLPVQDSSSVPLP

B1: NI-1201-A antibody (antibody, V domains shown)
VH: QVQLVQSGAEVKKPGSSVKVSCKASGGTFSSYAISWVRQAPGQGLEWMGGIIPLFDTTKYAQKFQGRVTITADESTSTAYMELSSLRSEDTAVYYCARDRDILTDYYPMGGMDVWGQGTTVTVSS
VL: AIQLTQSPSSLSASVGDRVTITCRASQGISSVLAWYQQKPGKAPKLLIYDASSLESGVPSRFSGSGSGTDFTLTISSLQPEDFATYYCQQSNSYPLTFGGGTKVEIKR
B2: NI-1201-C antibody (antibody, V domains shown)
VH: B1 VH with L54A, D56E, M109L
VL: B1 VL
B3: NI-1201-B antibody (antibody, V domains shown)
VH: B1 VH with M109L
VL: B1 VL
B4: NI-1201-D antibody (antibody, V domains shown)
VH: B1 VH with L54A, D56E, M109L
VL: B1 VL with N92Q

In the first assay the target is soluble human IL-6Rc (shuIL-6Rc) recombinant fusion protein of IL-6R and IL-6 (human) (UniProt P08887). Briefly: SPR (Biacore 2000), mAb captured on anti-human IgG Fc, analyte in solution, 25 C, 1:1 Langmuir. On the technique in general: Surface plasmon resonance follows binding to a sensor surface in real time, without labels.
The Kd is the free concentration of one partner at which half of the binding sites on the other are occupied at equilibrium, for simple one-to-one binding. One may read the koff as the rate constant with which the complex falls apart. The term kon denotes the rate constant with which the complex forms. In the case of B1, the Kd turned out to be 4.92 nM, the off-rate (koff) worked out at 0.000246 s⁻¹ and the association rate constant (kon) is 50100 M⁻¹ s⁻¹.

As to B2, the equilibrium dissociation constant (Kd) was 5.03 nM, the koff is 0.00024 s⁻¹ and the on-rate (kon) amounted to 47700 M⁻¹ s⁻¹.

As to B3, the equilibrium dissociation constant (Kd) amounted to 4.43 nM, the koff came out at 0.000237 s⁻¹ and the kon was found to be 53400 M⁻¹ s⁻¹.

Regarding B4, the Kd was found to be 4.89 nM, the koff turned out to be 0.000222 s⁻¹ and the association rate constant (kon) amounted to 45300 M⁻¹ s⁻¹.

For another assay, the target named is T1, soluble cynomolgus monkey IL-6R. Described as above. The method, then: (§1) A CM5 Biacore chip was used and 1640 RU (response units) of an anti-human IgG Fc (Biacore AB, Uppsala, Sweden) was immobilized by EDC/NHS chemistry. […] The surface was regenerated after each cycle by injection of 3M magnesium chloride at 20 μL/min, for 30 s followed by lmin of stabilization time in HBS-EP buffer (Biacore AB, Uppsala, Sweden). Binding was measured by passing analytes carrier-free soluble human IL-6R (shuIL6-R; R&D), soluble human IL-6Rc (shuIL-6Rc) and soluble cynomolgus monkey IL-6R (scyIL-6R) in duplicates at the following concentrations: 100 nM, 50 nM, 25 nM, 12.5 nM, 6.25 nM and 0nM. All solutions were diluted in HBS-EP buffer. Injection was performed at 50 μl/min for 3 min followed by 12 min of dissociation time and the temperature was set at 25° C.
The molecule B1 returned a Kd of 2.05 nM, a koff of 0.000213 s⁻¹ and a kon of 104000 M⁻¹ s⁻¹.

B2 returned an equilibrium dissociation constant (Kd) of 2.03 nM, a dissociation rate constant (koff) of 0.000225 s⁻¹ and a kon of 111000 M⁻¹ s⁻¹.

Consider B3, for which the Kd stood at 1.81 nM, the off-rate (koff) amounted to 0.000207 s⁻¹ and the on-rate (kon) is 115000 M⁻¹ s⁻¹.

Take B4: binding was put at a Kd of 1.79 nM, the koff worked out at 0.0002 s⁻¹ and the on-rate constant (kon) is 112000 M⁻¹ s⁻¹.

The next assay addresses T2, carrier-free soluble human IL-6R (R&D). The description is as above. The method, then:
as §1
B1 showed a Kd of 0.121 nM, a koff of 0.00011 s⁻¹ and a kon of 829000 M⁻¹ s⁻¹.

With B2, the dissociation constant (Kd) was 0.11 nM, the koff was determined as 0.00011 s⁻¹ and the kon stood at 992000 M⁻¹ s⁻¹.

For the molecule B3, binding was characterised by a dissociation constant (Kd) of 0.107 nM, the off-rate constant (koff) is 9.4e-05 s⁻¹ and the kon came out at 875000 M⁻¹ s⁻¹.

For the molecule B4, the dissociation constant (Kd) came to 0.134 nM, the koff stood at 0.000102 s⁻¹ and the kon came to 761000 M⁻¹ s⁻¹.
